From publication PMC7489914, “Structural and functional studies of Arabidopsis thaliana legumain beta reveal isoform specific mechanisms of activation and substrate recognition” (The Journal of Biological Chemistry, 2020)

Biological target: T1, AtLEGβ catalytic AEP domain (up to the autocatalytic cleavage site Asn333) (Arabidopsis thaliana, UniProt Q39044 22-333)
T1 construct: Arabidopsis thaliana legumain isoform β, catalytic (AEP) domain up to the autocatalytic cleavage site Asn333; Removal of the His6 tag (cleavage within the TEV site) was only observed under very acidic pH conditions; also called catalytic domain; AEPβ
T1 sequence (looked up): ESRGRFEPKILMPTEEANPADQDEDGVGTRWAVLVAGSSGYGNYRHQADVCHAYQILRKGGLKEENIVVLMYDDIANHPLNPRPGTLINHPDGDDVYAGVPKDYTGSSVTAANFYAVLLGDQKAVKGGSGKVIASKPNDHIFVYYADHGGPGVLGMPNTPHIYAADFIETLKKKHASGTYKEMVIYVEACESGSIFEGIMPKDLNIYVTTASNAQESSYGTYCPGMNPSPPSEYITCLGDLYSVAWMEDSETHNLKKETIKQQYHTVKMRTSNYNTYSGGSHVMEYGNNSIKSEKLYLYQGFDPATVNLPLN
Assay: SEC; pH 5.0-activated AtLEGβ on an S200 column, 20 mM citric acid pH 5.0, 100 mM NaCl; BSA as size standard
Conditions: both partners purified

B1: AtLEGβ AP-LSAM C-terminal fragment (Gln346–Ala486) (domain or fragment, Arabidopsis thaliana, UniProt Q39044 346-486, looked up)
chain: QRDADLLFLWHMYRTSEDGSRKKDDTLKELTETTRHRKHLDASVELIATILFGPTMNVLNLVREPGLPLVDDWECLKSMVRVFEEHCGSLTQYGMKHMRAFANVCNNGVSKELMEEASTAACGGYSEARYTVHPSILGYSA
notes: also called LSAM domain
B1: binds.
